Data taken from US20160058829A1, “ANTI-FIBROTIC PEPTIDES AND THEIR USE IN METHODS FOR TREATING DISEASES AND DISORDERS CHARACTERIZED BY FIBROSIS” (Thrasos Innovation, Inc., priority 2011, published 2016).
Entries after “also recorded” stand apart in the source; their conditions may differ. Like-named read-outs stand apart in the source and are kept apart here. Positions of bridges follow the written chain, without caps; N, C: chain ends.

T1: Alk-6 (Homo sapiens, UniProt O00238)
T1 construct: Highly purified extra-cellular domain (ECD) of Alk-3 or Alk-6 (expressed as a fusion protein with Fc domain) served as a receptor
T1 sequence (O00238 14-126 limits assumed): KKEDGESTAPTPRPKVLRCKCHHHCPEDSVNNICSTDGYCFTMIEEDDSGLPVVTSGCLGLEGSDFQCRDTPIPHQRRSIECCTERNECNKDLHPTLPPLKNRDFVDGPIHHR

B1: BMP-7: bone morphogenetic protein-7; recombinant human BMP7, positive control (protein)
chain: STGSKQRSQNRSKTPKNQEALRMANVAENSSSDQRQACKKHELYVSFRDLGWQDWIIAPEGYAAYYCEGECAFPLNSYMNATNHAIVQTLVHFINPETVPKPCCAPTQLNAISVLYFDDSSNVILKKYRNMVVRACGCH

Assays:
Alk-6 = biological target: T1, Alk-6; assay: Radio-ligand (125I-BMP7) receptor binding assay, Alk-6 ECD
Description: FIG. 45A-FIG. 45G Pharmacokinetics of THR-123. FIG. 45A. BMP7 structure figure with the residue weights resulting from the analysis mapped on to it. FIG. 45B, FIG. 45C. Radio-ligand receptor binding assays specific for individual type I receptors, Alk-3 (FIG. 45B) and Alk-6 (FIG. 45C). Highly purified extra-cellular domain (ECD) of Alk-3 or Alk-6 (expressed as a fusion protein with Fc domain) served as a receptor. In each assay purified receptor was immobilized on each well and peptide analog or unlabeled BMP7 was added, followed by ^125I-labeled BMP7. Radiolabeled BMP7 complex was counted in an auto-gamma counter. Results were expressed as the mean±s.e.m. […] Concentration of THR-123 in systemic circulation of Wistar rats following iv injection of THR-123 (^125I-Tyr) via the tail vein determined by total radioactivity measurement. […] Six hours after intravenous administration of ^125I labeled-THR-123 in rats at a dose of 6.25 mg/kg-body weight, tissues were harvested and analyzed by automatic gamma well counter. […] Radioactivity of orally administrated ^125I labeled-THR-123 at a dose of 5 mg/kg body weight was localized in the kidney between 1 and 6 hours after administration and peaked at around 3 hours.
First, specific affinity of the extra cellular domains (ECD) of the several type I receptors of BMPs to THR-123 was analyzed. […]

NP-1 cells = assay: TGF-β-induced EMT in NP-1 cells (inhibition and reversal); assay type: cell-based; settings: for TGF-β-induced E-cadherin loss (co-incubation): 48 h; for TGF-β-induced E-cadherin loss (co-incubation) / TGF-β-induced EMT, cell shape (co-incubation): BMP-7 1 μg/ml, THR-123 10 μM; for E-cadherin expression in TGF-β-incubated cells (reversal) / percentage of cells that regained epithelial characteristics (length to width ratio): NP-1 cells; for TGF-β-induced EMT, cell shape (co-incubation): TGF-β 3 ng/ml with EGF 48 h; for percentage of cells that regained epithelial characteristics (length to width ratio): reversal experiment
Experimental: FIG. 51A-FIG. 51J THR-123 inhibits epithelial-mesenchymal transition in NP-1 cells. FIG. 51A-FIG. 51E: Bright field image. […] F-J. E-cadherin immunofluorescence labeling. NP-1 cells expressed E-cadherin in cell border (FIG. 51F). […] Representative results are shown.
FIG. 53A-FIG. 53L Reversal of EMT by THR-123 in NP-1 cells A-E: Inverted microscopic pictures. FIG. 53A. Basal polygonal epithelial nature of NP1 cells. FIG. 53B. […] FIG. 53C, FIG. 53D. BMP 7 (1 μg/ml) (FIG. 53C) or THR-123 (10 μM) (FIG. 53D) were added to mesenchymal like cells induced by TGF-β and EGF for the additional 48 hrs. […] FIG. 53E. […] FIG. 53F. Ratio of length to width was calculated in reversal experiment. Five representative pictures of the cells in different areas of the well, were taken by using the inverted microscope. A total of 100 cells were analyzed (20 cells per picture). […] The data are presented mean+s.e.m. in the graph. FIG. 53G. […] Mean plus one SD was estimated as epithelial characteristics and the percentage of epithelial characteristics in each experimental setting were estimated. 18% of BMP7 and 24% of THR-123 treated NP-1 cells regained epithelial characteristics. FIG. 53H-FIG. 53L. Immunofluorescence picture for E-cadherin. TGF-β incubation decreased E-cadherin levels when compare to untreated cells (FIG. 53H, FIG. 53I). […] Representative results from three independent experiments are shown.
(§1) EMT was induced in NP1 cells or MCT cells by incubation with 3 ng/ml recombinant human […] for 48 h. When EMT occurred, the medium was removed and replaced with THR-123 (10 μM) or recombinant human BMP7 (100 ng/ml) in DMEM. After 48 h, the cells were characterized by immunocytochemistry using primary monoclonal antibodies to E-cadherin ([…]) and rhodamine-conjugated secondary antibodies (Jackson Immunoresearch, West Grove, Pa.) as previously described. The staining was visualized by fluorescence microscopy and documented representative pictures using Spot advanced software (Carl Zeiss, Oberkochen, Germany). Also protein and total RNA were harvested at the end of experiment. For the morphometric analysis for EMT, length/width of cells in bright field pictures are measured by image J software. The ratio of length/width was calculated.

MCT cells = assay: TGF-β-induced EMT in MCT cells (inhibition and reversal); assay type: cell-based; settings: for reversal of EMT: additional 48 h after EMT induction, BMP-7 1 μg/ml; for percentage of cells that regained epithelial characteristics (length to width ratio 3 or less): reversal experiment, MCT cells
Experimental: FIG. 52A-FIG. 52E THR-123 inhibits epithelial-mesenchymal transition in MCT cells. Inhibition of EMT by THR-123. […] FIG. 52D, FIG. 52E qPCR analysis for mesenchymal marker CTGF (FIG. 52D) and Snail1 (FIG. 52E). Total RNA was extracted from cells. 1 μg of total RNA was used for generating complementary cDNA and subsequently qPCR was performed. N=3. Data was expressed as mean±s.e.m. in the graph.
FIG. 54A-FIG. 54H THR-123 reverses TGF-β-induced EMT in MCT cells. FIG. 54A-FIG. 54E. Cell were induced EMT by 48 h incubation of TGF-β and EGF (FIG. 54E). After induction of EMT, cells are incubated with either BMP-7 (1 μg/ml) (FIG. 54C), THR-123 (10 μM) (FIG. 54D) or control peptide (FIG. 54E) for an additional 48 h. […] FIG. 54F. Ratio of length to width was calculated in reversal experiment. 5 representative pictures of the cells in different areas of the well, were taken by using the inverted microscope. A total of 100 cells were analyzed (20 cells per picture). […] The data are presented mean±s.e.m. in the graph. FIG. 54G: 3 or less in length to width ratio in MCT cell was estimated as epithelial characteristics and the percentage of epithelial characteristics in each experimental setting are estimated. 52% of BMP7 and 41% of THR-123 treated MCT cells regained epithelial characteristics. Experiments were repeated three times.
as §1

binding to ALK6 (competition with 125I-BMP7) (Alk-6) | Molecule | binding to ALK6 (competition with 125I-BMP7) (Alk-6; listed as THR-123) | TGF-β-induced E-cadherin loss (co-incubation) (NP-1 cells) | E-cadherin expression in TGF-β-incubated cells (reversal) (NP-1 cells) | TGF-β-induced EMT, cell shape (co-incubation) (NP-1 cells) | percentage of cells that regained epithelial characteristics (length to width ratio) (NP-1 cells) | TGF-β induced expression of snail and CTGF (qPCR) (MCT cells; FIG. 52 D, E) | TGF-β-induced EMT, cell shape (co-incubation) (MCT cells; TGF-β 2.5 ng/ml 48 h, THR-123 10 μM) | reversal of EMT (MCT cells; THR-123 10 μM) | percentage of cells that regained epithelial characteristics (length to width ratio 3 or less) (MCT cells)
– | (H)-CYFDDSSNVLCKKYRS-(OH) (H-CYFDDSSNVLCKKYRS-OH; disulfide 1-11; SMILES CC(C)C[C@@H]1NC(=O)[C@H](C(C)C)NC(=O)[C@H](CC(N)=O)NC(=O)[C@H](CO)NC(=O)[C@H](CO)NC(=O)[C@H](CC(=O)O)NC(=O)[C@H](CC(=O)O)NC(=O)[C@H](Cc2ccccc2)NC(=O)[C@H](Cc2ccc(O)cc2)NC(=O)[C@@H](N)CSSC[C@@H](C(=O)N[C@@H](CCCCN)C(=O)N[C@@H](CCCCN)C(=O)N[C@@H](Cc2ccc(O)cc2)C(=O)N[C@@H](CCCNC(=N)N)C(=O)N[C@@H](CO)C(=O)O)NC1=O) [SEQ ID NO: 1] | absolutely no competition; also recorded: does not bind | prevents E-cadherin loss | reversed E-cadherin expression | prevents these phenotypic changes | 24% | inhibited | prevents these phenotypic changes | Reversal of EMT was observed | 41%
binds | B1 | – | prevents E-cadherin loss | reversed E-cadherin expression | prevents these phenotypic changes | 18% | – | – | Reversal of EMT was observed | 52%
